Reference: the supplement of paper PMC10065799, “High-throughput profiling of sequence recognition by tyrosine kinases and SH2 domains using bacterial peptide display” (eLife, 2023)

Tests used:
AncSZ = test: phosphorylation enrichment, bacterial display (enrichment ratio); higher = better substrate or ligand; peptides without Tyr show the background
EPHB1 = EPHB1 (UniProt P54762); test: as above
EPHB2 = EPHB2 (UniProt P29323); test: as above
FGFR1 = FGFR1 (UniProt P11362); test: as above
FGFR3 = FGFR3 (UniProt P22607); test: as above
Fer (mouse) = test: as above
Fes = Fes (UniProt P07332); test: as above
Fyn = Fyn (UniProt P06241); test: as above
Hck = Hck (UniProt P08631); test: as above
Jak2 = Jak2 (UniProt O60674); test: as above
MERTK = MERTK (UniProt Q12866); test: as above
c-Abl (mouse) = test: as above
c-Src = test: as above
Grb2 SH2 = Grb2 SH2 (UniProt P62993); test: SH2 binding enrichment of the phosphorylated peptide, bacterial display (enrichment ratio); higher = better substrate or ligand; peptides without Tyr show the background
SHP2-C SH2 = test: as above
c-Src SH2 = test: as above
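Wherever SH2 binding enrichment of the phosphorylated peptide, bacterial display is given: peptide library displayed on the E. coli surface as eCPX fusions, selected cells deep-sequenced, score is each peptide's frequency after selection divided by its frequency in the input.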
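Wherever phosphorylation enrichment, bacterial display is given: 11-residue human phosphosite peptides and single-mutation variants displayed on the E. coli surface, counted by deep sequencing, each peptide's frequency after selection divided by its frequency in the unselected input library; frequency after pTyr selection over input frequency; kinase dosed for 20-30% of maximal phosphorylation in three min.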

Chain of Jak2 (O60674 whole entry, looked up): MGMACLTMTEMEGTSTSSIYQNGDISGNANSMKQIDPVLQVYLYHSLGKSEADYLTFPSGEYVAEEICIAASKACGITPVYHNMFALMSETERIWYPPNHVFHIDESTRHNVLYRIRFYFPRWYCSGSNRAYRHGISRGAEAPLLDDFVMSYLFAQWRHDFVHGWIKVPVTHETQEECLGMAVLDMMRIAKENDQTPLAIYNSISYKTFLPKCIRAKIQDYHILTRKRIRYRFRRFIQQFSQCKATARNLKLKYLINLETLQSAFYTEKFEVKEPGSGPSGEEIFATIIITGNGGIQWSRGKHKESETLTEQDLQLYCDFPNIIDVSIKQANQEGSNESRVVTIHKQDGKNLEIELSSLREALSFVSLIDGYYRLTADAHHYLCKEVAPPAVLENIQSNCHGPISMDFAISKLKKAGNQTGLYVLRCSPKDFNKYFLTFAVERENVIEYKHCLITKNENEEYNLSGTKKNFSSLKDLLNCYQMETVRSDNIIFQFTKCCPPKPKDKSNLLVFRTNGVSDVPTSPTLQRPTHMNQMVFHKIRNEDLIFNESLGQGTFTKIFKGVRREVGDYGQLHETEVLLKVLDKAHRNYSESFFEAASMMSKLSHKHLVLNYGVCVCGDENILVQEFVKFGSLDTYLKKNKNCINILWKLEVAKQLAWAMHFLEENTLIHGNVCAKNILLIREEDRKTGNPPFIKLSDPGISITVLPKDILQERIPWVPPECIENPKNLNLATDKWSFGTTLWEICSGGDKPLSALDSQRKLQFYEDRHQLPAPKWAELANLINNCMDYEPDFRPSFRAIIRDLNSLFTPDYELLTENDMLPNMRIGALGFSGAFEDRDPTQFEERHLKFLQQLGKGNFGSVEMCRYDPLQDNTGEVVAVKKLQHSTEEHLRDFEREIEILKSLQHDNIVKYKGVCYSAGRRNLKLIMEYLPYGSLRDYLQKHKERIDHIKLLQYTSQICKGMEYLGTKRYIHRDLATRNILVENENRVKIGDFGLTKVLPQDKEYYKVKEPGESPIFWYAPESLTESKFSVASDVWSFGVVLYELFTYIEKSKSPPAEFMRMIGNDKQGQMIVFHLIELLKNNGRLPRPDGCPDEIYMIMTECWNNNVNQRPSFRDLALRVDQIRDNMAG
Chain of Grb2 SH2 (P62993 whole entry, looked up): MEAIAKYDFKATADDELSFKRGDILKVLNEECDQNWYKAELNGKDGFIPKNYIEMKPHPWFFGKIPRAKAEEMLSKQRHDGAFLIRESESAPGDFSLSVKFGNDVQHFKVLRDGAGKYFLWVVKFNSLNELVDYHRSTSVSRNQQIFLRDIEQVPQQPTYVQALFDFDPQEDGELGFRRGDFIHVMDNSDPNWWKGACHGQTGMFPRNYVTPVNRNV
Chain of EPHB1 (P54762 whole entry, looked up): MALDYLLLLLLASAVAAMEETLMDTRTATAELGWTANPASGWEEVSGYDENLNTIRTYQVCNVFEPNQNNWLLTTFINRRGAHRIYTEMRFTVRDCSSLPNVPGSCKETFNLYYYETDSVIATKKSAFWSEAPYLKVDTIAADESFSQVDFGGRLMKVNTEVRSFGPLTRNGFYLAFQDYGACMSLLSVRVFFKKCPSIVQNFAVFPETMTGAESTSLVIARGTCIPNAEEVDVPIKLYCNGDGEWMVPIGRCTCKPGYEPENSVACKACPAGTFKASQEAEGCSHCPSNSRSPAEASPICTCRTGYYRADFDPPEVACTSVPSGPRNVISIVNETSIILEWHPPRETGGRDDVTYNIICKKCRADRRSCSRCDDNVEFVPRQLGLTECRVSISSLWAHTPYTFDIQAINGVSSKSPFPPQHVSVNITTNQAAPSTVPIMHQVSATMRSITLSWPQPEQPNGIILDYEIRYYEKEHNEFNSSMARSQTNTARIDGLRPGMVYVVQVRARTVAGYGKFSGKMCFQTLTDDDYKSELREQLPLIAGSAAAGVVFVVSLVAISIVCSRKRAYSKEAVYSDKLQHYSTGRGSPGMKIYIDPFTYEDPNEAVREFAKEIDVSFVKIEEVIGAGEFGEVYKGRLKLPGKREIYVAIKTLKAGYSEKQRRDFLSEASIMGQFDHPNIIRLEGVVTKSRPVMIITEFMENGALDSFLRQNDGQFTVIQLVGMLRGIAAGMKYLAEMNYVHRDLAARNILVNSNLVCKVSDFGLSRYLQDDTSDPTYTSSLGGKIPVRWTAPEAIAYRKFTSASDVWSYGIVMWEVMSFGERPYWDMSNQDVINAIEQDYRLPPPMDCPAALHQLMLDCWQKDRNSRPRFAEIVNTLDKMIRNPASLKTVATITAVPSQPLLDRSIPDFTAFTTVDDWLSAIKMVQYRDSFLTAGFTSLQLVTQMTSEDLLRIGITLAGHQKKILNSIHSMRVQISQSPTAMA
Chain of FGFR1 (P11362 whole entry, looked up): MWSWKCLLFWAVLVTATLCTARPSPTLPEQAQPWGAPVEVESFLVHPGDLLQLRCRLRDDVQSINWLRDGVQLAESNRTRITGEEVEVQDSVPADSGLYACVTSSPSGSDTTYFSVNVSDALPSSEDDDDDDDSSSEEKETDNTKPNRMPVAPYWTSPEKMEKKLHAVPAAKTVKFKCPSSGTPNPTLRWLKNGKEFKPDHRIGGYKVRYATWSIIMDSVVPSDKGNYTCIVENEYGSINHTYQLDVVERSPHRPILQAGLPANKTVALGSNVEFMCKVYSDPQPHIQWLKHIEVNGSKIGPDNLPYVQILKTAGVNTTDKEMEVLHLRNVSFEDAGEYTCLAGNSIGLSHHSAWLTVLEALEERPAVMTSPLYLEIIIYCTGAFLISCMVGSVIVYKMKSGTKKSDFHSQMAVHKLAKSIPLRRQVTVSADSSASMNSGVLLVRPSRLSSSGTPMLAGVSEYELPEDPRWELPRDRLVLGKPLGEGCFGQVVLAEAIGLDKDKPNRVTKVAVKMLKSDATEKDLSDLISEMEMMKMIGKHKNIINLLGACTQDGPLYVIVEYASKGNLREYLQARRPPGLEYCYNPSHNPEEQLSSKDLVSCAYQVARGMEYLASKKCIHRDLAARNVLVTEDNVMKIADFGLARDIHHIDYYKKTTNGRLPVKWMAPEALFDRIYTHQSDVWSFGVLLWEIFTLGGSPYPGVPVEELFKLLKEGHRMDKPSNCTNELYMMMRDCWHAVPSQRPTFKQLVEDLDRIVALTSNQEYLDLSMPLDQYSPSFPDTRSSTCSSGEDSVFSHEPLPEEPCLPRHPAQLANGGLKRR
Chain of MERTK (Q12866 whole entry, looked up): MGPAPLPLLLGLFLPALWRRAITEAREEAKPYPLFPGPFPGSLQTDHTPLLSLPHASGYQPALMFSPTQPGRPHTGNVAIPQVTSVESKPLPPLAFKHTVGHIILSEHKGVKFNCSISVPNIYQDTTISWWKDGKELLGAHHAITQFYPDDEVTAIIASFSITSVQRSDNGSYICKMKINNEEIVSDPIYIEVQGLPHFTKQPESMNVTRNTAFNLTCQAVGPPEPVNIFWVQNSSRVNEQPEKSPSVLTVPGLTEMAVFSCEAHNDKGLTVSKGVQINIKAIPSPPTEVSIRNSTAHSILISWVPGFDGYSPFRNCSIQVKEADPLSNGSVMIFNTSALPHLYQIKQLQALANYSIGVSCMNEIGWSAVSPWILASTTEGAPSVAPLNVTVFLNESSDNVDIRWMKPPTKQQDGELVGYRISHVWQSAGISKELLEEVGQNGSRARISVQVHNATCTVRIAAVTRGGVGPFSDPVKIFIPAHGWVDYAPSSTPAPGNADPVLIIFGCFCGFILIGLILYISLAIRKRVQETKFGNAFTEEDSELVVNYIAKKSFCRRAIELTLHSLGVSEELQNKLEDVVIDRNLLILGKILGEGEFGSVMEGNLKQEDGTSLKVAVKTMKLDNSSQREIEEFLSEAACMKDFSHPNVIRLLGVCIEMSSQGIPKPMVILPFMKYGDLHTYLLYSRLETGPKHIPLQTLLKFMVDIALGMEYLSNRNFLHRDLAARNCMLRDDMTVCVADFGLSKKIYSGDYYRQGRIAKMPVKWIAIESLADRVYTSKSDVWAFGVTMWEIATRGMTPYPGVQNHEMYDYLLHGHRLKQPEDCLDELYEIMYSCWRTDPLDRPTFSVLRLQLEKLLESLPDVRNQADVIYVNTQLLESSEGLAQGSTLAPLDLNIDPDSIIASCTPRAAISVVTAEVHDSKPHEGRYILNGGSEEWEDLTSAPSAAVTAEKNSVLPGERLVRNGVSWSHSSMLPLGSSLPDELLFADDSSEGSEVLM
Chain of Fyn (P06241 whole entry, looked up): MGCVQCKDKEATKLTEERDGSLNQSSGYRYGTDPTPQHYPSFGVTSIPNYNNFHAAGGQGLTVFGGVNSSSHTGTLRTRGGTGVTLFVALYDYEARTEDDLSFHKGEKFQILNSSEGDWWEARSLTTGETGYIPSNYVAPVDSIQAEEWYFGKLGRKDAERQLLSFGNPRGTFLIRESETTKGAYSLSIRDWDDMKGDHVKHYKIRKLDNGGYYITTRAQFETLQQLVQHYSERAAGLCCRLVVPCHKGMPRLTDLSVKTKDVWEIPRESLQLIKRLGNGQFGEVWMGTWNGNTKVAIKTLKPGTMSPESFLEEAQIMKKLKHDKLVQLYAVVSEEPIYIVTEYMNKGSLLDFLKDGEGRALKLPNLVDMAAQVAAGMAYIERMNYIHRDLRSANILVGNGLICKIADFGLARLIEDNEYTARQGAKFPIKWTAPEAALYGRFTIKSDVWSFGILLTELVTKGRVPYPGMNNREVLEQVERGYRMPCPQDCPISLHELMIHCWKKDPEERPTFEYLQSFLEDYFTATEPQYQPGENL

Sequence	phosphorylation enrichment (AncSZ)	phosphorylation enrichment (EPHB1)	phosphorylation enrichment (EPHB2)	phosphorylation enrichment (FGFR1)	phosphorylation enrichment (FGFR3)	phosphorylation enrichment (Fer (mouse))	phosphorylation enrichment (Fes)	phosphorylation enrichment (Fyn)	phosphorylation enrichment (Hck)	phosphorylation enrichment (Jak2)	phosphorylation enrichment (MERTK)	phosphorylation enrichment (c-Abl (mouse))	phosphorylation enrichment (c-Src)	SH2 binding enrichment (Grb2 SH2)	SH2 binding enrichment (SHP2-C SH2)	SH2 binding enrichment (c-Src SH2)
SRIWVYNHFRW [BRCA2_Y2621_YF]	1.15	0.597	0.612	0.435	0.78	0.413	1.29	0.423	0.477	1.13	0.44	0.853	0.479	1.15	1.37	1.12
SRVTQYERNFE [SNX1_Y463_D466N]	0.763	0.421	0.387	0.453	0.499	0.438	0.813	0.45	0.435	0.662	0.379	0.634	0.377	0.845	0.593	0.569
SSEYHCVGGFY [CTSC_Y347_Y347C]	2.32	3.8	4.66	7.73	5.2	0.64	1.45	1.76	1.72	1.37	0.775	7.61	1.82	0.557	0.764	0.398
SSNLFYRCLTA [CNGA3_Y169_W171C_YF]	1.03	0.638	0.632	0.491	0.742	0.497	1.36	0.384	0.429	1.12	0.42	1.06	0.454	0.808	0.518	0.399
SSSAIYDNPNL [DCP1B_Y191]	0.898	12.2	15.6	0.411	0.457	9.27	0.737	8.1	9.85	0.632	8.1	22.5	5.76	0.688	0.53	0.706
SSVKPYRVFCD [FGB_Y266_YF]	0.701	0.432	0.394	0.453	0.552	0.34	0.74	0.419	0.432	0.678	0.392	0.7	0.481	1.11	1.08	0.758
SSWPDYVRPLP [HSPB1_Y54_G53D]	4.98	1.57	0.599	2.49	1.6	0.54	0.93	0.442	0.511	7.67	0.437	0.808	0.475	0.974	0.71	0.489
SVEELYAIPPD [PEAK1_Y797]	3.92	3.15	13.6	5.57	5.64	5.23	1.59	2.88	4.24	1.78	9.81	9.56	3.28	0.746	0.733	0.543
SVKVYYKKCWF [EPHA7_Y202_S207F]	1.12	0.553	0.531	0.432	0.596	0.433	1.14	0.375	0.382	1.08	0.356	0.856	0.448	0.712	0.657	0.501
SVTCPYSPALN [TP53_Y126_T125P]	0.961	0.572	0.573	0.505	0.679	0.656	1.29	0.481	0.616	1.17	0.437	1.21	2.15	0.939	0.7	0.556
SVTCTNSPALN [TP53_Y126_Y126N]	0.907	0.586	0.483	0.491	0.699	0.588	1.24	0.495	0.447	1.08	0.487	0.762	0.504	0.659	0.65	0.385
SVTCTYSPALN [TP53_Y126]	1.53	0.794	0.723	0.517	0.984	0.626	1.72	0.489	0.641	1.45	0.456	0.976	0.66	0.766	0.616	0.401
SVTCTYSPTLN [TP53_Y126_A129T]	1.48	0.92	0.682	0.606	0.912	0.667	1.58	0.566	0.625	1.4	0.503	0.926	0.58	0.639	0.551	0.469
SVTCTYYPALN [TP53_Y126_S127Y]	1.52	0.645	0.617	0.499	0.831	0.556	1.36	0.48	0.592	1.36	0.412	1.01	0.575	0.68	0.693	0.373
SVVVCYEPPEV [TP53_Y220_P219C]	1.78	0.751	0.697	0.509	0.78	0.678	1.19	0.573	0.616	1.07	0.457	0.849	0.518	0.814	0.656	0.584
SVVVPYEPHEV [TP53_Y220_P223H]	1.05	0.716	0.615	0.542	0.835	1.38	1.25	0.54	0.577	1.18	0.493	0.803	0.513	0.726	0.781	0.569
SVVVPYQPPEV [TP53_Y220_E221Q]	0.728	0.645	0.51	0.494	0.596	0.467	0.918	0.399	0.445	0.784	0.383	1.51	0.44	0.969	0.696	0.535

Sequence	phosphorylation enrichment (AncSZ)	phosphorylation enrichment (EPHB1)	phosphorylation enrichment (EPHB2)	phosphorylation enrichment (FGFR1)	phosphorylation enrichment (FGFR3)	phosphorylation enrichment (Fer (mouse))	phosphorylation enrichment (Fes)	phosphorylation enrichment (Fyn)	phosphorylation enrichment (Hck)	phosphorylation enrichment (Jak2)	phosphorylation enrichment (MERTK)	phosphorylation enrichment (c-Abl (mouse))	phosphorylation enrichment (c-Src)	SH2 binding enrichment (Grb2 SH2)	SH2 binding enrichment (SHP2-C SH2)	SH2 binding enrichment (c-Src SH2)
SWSTSYSGYRC [NKAPL_Y91_Y96C]	0.944	0.551	0.547	0.585	0.62	0.532	0.993	0.462	0.552	0.98	0.443	0.751	0.848	0.914	0.798	0.63
TAALWYIYSHT [ENG_Y612]	1.15	0.794	0.832	0.497	0.689	0.586	1.14	1.52	1.3	0.984	0.878	0.748	1.82	0.781	0.918	0.6
TDLAFYLVREG [ASL_Y376_K380E_YF]	1.28	0.709	0.703	0.574	1.01	0.555	1.59	0.437	0.546	1.24	0.501	0.85	0.519	0.634	0.675	0.612
TDRNLYSKNLV [CFAP58_Y501_S496T]	0.564	0.555	0.56	0.505	0.531	1.35	0.737	0.465	0.654	0.758	0.959	0.66	0.627	0.769	0.559	0.408
TDTQLYGRFGS [ITGA2B_Y384_G380D]	0.783	0.608	0.583	0.487	0.464	0.479	0.888	11.1	9.16	0.645	0.98	0.769	7.4	0.734	0.656	0.418
TEAEPYFRSLR [NPHS1_Y1138_YF]	0.852	0.448	0.519	0.399	0.639	0.494	0.953	0.557	0.511	0.843	0.447	0.758	0.477	0.938	1.02	0.571
TEFSQYMRRKN [MAX_Y73_I71S_YF]	0.76	0.538	0.625	0.718	0.626	0.516	0.901	0.647	0.715	0.727	0.727	0.836	0.735	0.608	0.279	0.37
TEGNGYISFNE [LCP1_Y28_D24E]	1.09	0.734	0.595	0.468	0.636	0.487	1.01	0.539	0.528	0.823	0.499	0.723	0.573	0.722	0.889	14.1
TEYIQYMRRKN [MAX_Y73]	0.734	0.404	0.528	0.7	0.609	0.523	0.615	0.468	0.7	0.718	0.545	0.546	0.491	0.462	0.737	0.473
TEYIQYVRRKN [MAX_Y73_M74V]	0.712	0.465	0.425	0.528	0.488	0.454	0.573	0.615	0.589	0.548	0.647	0.875	0.657	0.834	0.64	0.463
TFEFRYLEDQD [CNOT3_Y746_R750Q_YF]	1.89	0.646	0.44	0.497	0.903	0.438	1.44	0.506	0.622	1.92	0.643	0.997	0.597	0.908	0.865	0.602
TFGNLYGSRKQ [YIPF7_Y59_A54T_YF]	0.629	0.366	0.398	0.514	0.421	0.457	0.788	0.911	3.44	0.507	0.641	0.585	1.81	0.851	0.512	0.348
TFGVLYKARNK [CDK2_Y19_V18L_YF]	0.838	0.592	0.599	0.436	0.586	0.536	0.906	0.421	0.561	0.796	0.343	0.487	0.424	0.828	0.423	0.49
TFHNTYHSHMR [IL1RAPL1_Y615_Q618H]	0.529	0.367	0.485	0.67	0.424	0.44	0.884	0.4	0.667	0.725	0.482	0.538	0.554	1.09	1.51	0.861
TGILLHGLASR [QARS1_Y57_Y57H]	0.417	0.28	0.328	0.367	0.379	0.218	0.629	0.281	0.301	0.488	0.419	0.528	0.469	0.783	0.801	0.593
THLARYSDELR [APOA1_Y190_P189R]	0.653	0.32	0.412	0.437	0.449	0.616	0.645	0.539	0.4	0.543	0.494	0.405	0.397	0.96	0.622	0.554
